Experimental data from US20070093418A1 (Amgen, published 2007).
Blank lines part the entries; values can stand above or below the binder they belong to.

Experiments:
[1] = molecular target: T1, Tie-2-Fc (R&D Systems, catalog number 313-TI) (human, UniProt Q02763 23-748); assay: ELISA on conditioned medium with N-terminal hAng-2 (aa 1-254, C-terminal 6xHis); O.D. 370; pCDNA3 vector-control medium as blank
T1 construct: extracellular domain; bought; also called hTie2-Fc; Recombinant Human Tie-2-Fc Chimera; not shown: Fc of the bought chimera
Protocol: (§1) The binding epitope of anti-Ang-2 antibodies and peptibodies was determined by their ability to bind the three versions of human hAng-2 by ELISA according to the following protocol: a high-binding 96-well assay plate was coated with 100 μl of conditioned media per well, and incubated at 37° C. for 1 hour. Conditioned media was aspirated, and the plate was blocked with 200 μl per well of 5% BSA in PBS at room temperature for 1 hour. The blocking solution was then aspirated. […] The wells were washed 4 times with 200 μl of 0.1% Tween in PBS. 100 μl per well of HRP-conjugated goat anti-human IgG or goat anti-mouse IgG were added, and incubated at room temperature for 45 minutes. The wells were then washed with 200 μl of 0.1% Tween in PBS 4 times. 100 μl per well of TMB substrate was then added. O.D. was read at 370 nm.

Con4 (C) = molecular target: T2, Con4 (C) (Homo sapiens (Human), UniProt P0DOX5 223-449 = IgG part); assay: as above
T2 construct: also called TN8-Con4-C
Protocol: as §1

[2] = molecular target: T3, Negative Control Peptibody 4883 (Homo sapiens (Human), UniProt P0DOX5 223-449 = IgG part); assay: as above
Protocol: as §1

[3] = molecular target: T3, Negative Control Peptibody 4883; assay: ELISA on conditioned medium with C-terminal hAng-2 (aa 255-495, C-terminal 6xHis); O.D. 370; pCDNA3 vector-control medium as blank
Protocol: as §1

2xCon4 (C) 1K [4] = molecular target: T4, 2xCon4 (C) 1K; assay: KinExA solution competition, 30 pM 2xCON4-C; soluble huAng-2 varied, competing with huAng-2 on beads
T4 construct: also called 2×Con4-C; 2×CON4-C (Pb5714)
Source text: (§2) Reacti-Gel 6× beads (Pierce, Rockford, Ill.) were pre-coated with huAng-2 and blocked with BSA. […] The amount of the bead-bound peptibody was quantified by fluorescent (Cy5) labeled goat anti-human-Fc antibody (Jackson Immuno Research, West Grove, Pa.). The binding signal is proportional to the concentration of free peptibody at equilibrium.
(§3) The dissociation equilibrium constant (KD) was obtained from nonlinear regression of the competition curves using a dual-curve one-site homogeneous binding model (KinE×™ software).

2xCon4 (C) 1K [5] = molecular target: T4, 2xCon4 (C) 1K; assay: KinExA solution competition, 10 pM 2xCON4-C; soluble huAng-2 varied, competing with huAng-2 on beads
Source text: as §2, §3

B1: N-term hAng2 (aa 1-254) (ligand)
chain: YNNFRKSMDSIGKKQYQVQHGSCSYTFLLPEMDNCRSSSSPYVSNAVQRDAPLEYDDSVQRLQVLENIMENNTQWLMKLENYIQDNMKKEMVEIQQNAVQNQTAVMIEIGTNLLNQTAEQTRKLTDVEAQVLNQTTRLELQLLEHSLSTNKLEKQILDQTSEINKLQDKNSFLEKKVLAMEDKHIIQLQSIKEEKDQLQVLVSKQNSIIEELEKKIVTATVNNSVLQKQQHDLMETHHHHHH
notes: also called N-terminal (amino acids 1-254) human Ang-2
- binding result [1]: no binding (tested: 1 µg/ml (single concentration))
- binding result (Con4 (C)): no binding (tested: 1 µg/ml (single concentration))
- binding result [2]: no binding (tested: 1 µg/ml (single concentration))

B2: C-term of hAng2 (aa 255-495) (ligand)
chain: VNNLLTMMSTSNSKDPTVAKEEQISFRDCAEVFKSGHTTNGIYTLTFPNSTEEIKAYCDMEAGGGGWTIIQRREDGSVDFQRTWKEYKVGFGNPSGEYWLGNEFVSQLTNQQRYVLKIHLKDWEGNEAYSLYEHFYLSSEELNYRIHLKGLTGTAGKISSISQPGNDFSTKDGDNDKCICKCSQMLTGGWWFDACGPSNLNGMYYPQRQNTNKFNGIKWYYWKGSGYSLKATTMMIRPADFHHHHHH
notes: also called C-terminal (amino acids 255-495) human Ang-2
- binding result [3]: no binding (tested: 1 µg/ml (single concentration))

- IC50 (read off the curve) (2xCon4 (C) 1K [4]): ~0.04 nM
- IC50 (read off the curve) (2xCon4 (C) 1K [5]): ~0.01 nM
B3: human angiopoietin-2 (Ang-2) (ligand, UniProt O15123 19-496, looked up)
chain: YNNFRKSMDSIGKKQYQVQHGSCSYTFLLPEMDNCRSSSSPYVSNAVQRDAPLEYDDSVQRLQVLENIMENNTQWLMKLENYIQDNMKKEMVEIQQNAVQNQTAVMIEIGTNLLNQTAEQTRKLTDVEAQVLNQTTRLELQLLEHSLSTNKLEKQILDQTSEINKLQDKNSFLEKKVLAMEDKHIIQLQSIKEEKDQLQVLVSKQNSIIEELEKKIVTATVNNSVLQKQQHDLMETVNNLLTMMSTSNSAKDPTVAKEEQISFRDCAEVFKSGHTTNGIYTLTFPNSTEEIKAYCDMEAGGGGWTIIQRREDGSVDFQRTWKEYKVGFGNPSGEYWLGNEFVSQLTNQQRYVLKIHLKDWEGNEAYSLYEHFYLSSEELNYRIHLKGLTGTAGKISSISQPGNDFSTKDGDNDKCICKCSQMLTGGWWFDACGPSNLNGMYYPQRQNTNKFNGIKWYYWKGSGYSLKATTMMIRPADF
notes: Several preparations are used (R&D Systems protein, biotinylated R&D protein, 293T conditioned media); also called hAng-2; huAng-2
